In test [1] the target is T1, human IL-18BP (interleukin-18 binding protein, isoform A) (human, UniProt O95998 31-194).
T1 construct: cell assays used Sino Biological 10357-H08H; PBMC assay 1 relies on endogenous IL-18BP; UniProt number is printed as 095998; also called hIL-18BP
T1 sequence: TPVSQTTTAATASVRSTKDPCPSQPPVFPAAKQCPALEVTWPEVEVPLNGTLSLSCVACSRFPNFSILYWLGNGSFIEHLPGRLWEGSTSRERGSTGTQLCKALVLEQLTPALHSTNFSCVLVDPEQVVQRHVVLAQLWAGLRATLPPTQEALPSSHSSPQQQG
Put plainly: BLI, affinity column of Table E8. On the technique in general: Biolayer interferometry detects binding as a change in optical thickness at a sensor tip.

Test [2] addresses T1, human IL-18BP (interleukin-18 binding …). Put plainly: BLI (Octet), mAb on AHC biosensor.
Test [3] shares this target. In words: cell-based or functional assay.
Test [4] addresses T2, cynomolgus IL-18BP (cynomolgus monkey).
T2 construct: Generated in-house; also called cyIL-18BP; cyno IL-18BP
T2 chain: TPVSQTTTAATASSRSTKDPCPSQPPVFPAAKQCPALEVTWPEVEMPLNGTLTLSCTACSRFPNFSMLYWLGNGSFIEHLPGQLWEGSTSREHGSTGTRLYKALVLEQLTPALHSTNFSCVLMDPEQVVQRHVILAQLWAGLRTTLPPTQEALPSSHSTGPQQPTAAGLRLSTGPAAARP
In words: ratio of BLI KDs, cyno against human IL-18BP.

The target of test [5] is T2, cynomolgus IL-18BP. In words: BLI (Octet), mAb on AHC biosensor.

B1: SA313a (antibody, human IgG1, V domains shown)
VH: QVQLQESGPGLVKPSQTLSLTCTVSGYSITSDYNAHWIRQPPGKGLEWIGYIHYSGSTMYNPSLKSRVTISRDTSKNQFSLKLSSVTAADTAVYYCARNFGSIYVNYFDYWGQGTLVTVSS
VL: EIVLTQSPATLSLSPGERATLSCSASSSVSYMYWYQQKPGQAPRPLIYRTSNLASGIPARFSGSGSGTDFTLTISSLEPEDFAVYYCQQYHSYPTFGGGTKVEIK
notes: humanized; human IgG1 (suffix a), kappa
What is called Kd is the free concentration of one partner at which half of the binding sites on the other are occupied at equilibrium, for simple one-to-one binding. Consider B1, for which the dissociation constant (Kd) in test [1] and in test [2] was 0.272 nM in each case. In test [3], the “EC50 in PBMC Assay 1 (endogenous IL-18BP), IFNγ” value is 1.2 nM. In addition, in test [3], the “EC50 in PBMC Assay 2 (precomplexed IL-18BP), IFNγ” value is 0.71 nM.

B2: SA340a (antibody, human IgG1, V domains shown)
VH: QVQLQESGPGLVKPSQTLSLTCTVSGYSITQDYNAHWIRQPPGKGLEWIGYIHYSGQTYYNPSLKSRVTISRDTSKNQFSLKLSSVTAADTAVYYCARNFGSIYVNYFDYWGQGTLVTVSS
VL: EIVLTQSPATLSLSPGERATLSCSASSSVSYMYWYQQKPGQAPRPLIYRTSNLASGIPARFSGSGSGTDFTLTISSLEPEDFAVYYCQQYHSYPKFGGGTKVEIK
notes: as for B1
As for B2, the Cyno/human in test [4] is 1.33 ratio. Moreover, the Kd was 0.036 nM in test [5] and 0.027 nM in test [2].

B3: SA325a (antibody, human IgG1, V domains shown)
VH: QVQLQESGPGLVKPSQTLSLTCTVSGYSITSDYNAHWIRQPPGKGLEWIGYIHYSGSTNYNPSLKSRVTISRDTSKNQFSLKLSSVTAADTAVYYCARNYGSIYVNYFDYWGQGTLVTVSS
VL: EIVLTQSPATLSLSPGERATLSCSASSSVSYMYWYQQKPGQAPRPLIYRTSNLASGIPARFSGSGSGTDFTLTISSLEPEDFAVYYCQEYHSYPTFGGGTKVEIK
notes: as for B1
Regarding B3, the Kd in test [1] and in test [2] was 0.468 nM in each case. Moreover, the “EC50 in PBMC Assay 1 (endogenous IL-18BP), IFNγ” value in test [3] stood at 6.1 nM. The “EC50 in PBMC Assay 2 (precomplexed IL-18BP), IFNγ” value in test [3] is 5 nM.

B4: SA319a (antibody, human IgG1, V domains shown)
VH: QVQLQESGPGLVKPSQTLSLTCTVSGYSITQDYNAHWIRQPPGKGLEWIGYIHYSGQTNYNPSLKSRVTISRDTSKNQFSLKLSSVTAADTAVYYCARNFGSIYVNYFDYWGQGTLVTVSS
VL: EIVLTQSPATLSLSPGERATLSCSASSSVSYMYWYQQKPGQAPRPLIYRTSNLASGIPARFSGSGSGTDFTLTISSLEPEDFAVYYCQQYHSYPTFGGGTKVEIK
notes: as for B1
As for B4, the equilibrium dissociation constant (Kd) in test [1] and in test [2] was 0.254 nM each time. In addition, the “EC50 in PBMC Assay 1 (endogenous IL-18BP), IFNγ” value in test [3] turned out to be 0.2 nM. Moreover, in test [3], the “EC50 in PBMC Assay 2 (precomplexed IL-18BP), IFNγ” value stood at 0.07 nM.

B5: SA329a (antibody, human IgG1, V domains shown)
VH: QVQLQESGPGLVKPSQTLSLTCTVSGYSITSDYNAHWIRQPPGKGLEWIGYIHYSGSTNYNPSLKSRVTISRDTSKNQFSLKLSSVTAADTAVYYCARNYGSIYVNYFDYWGQGTLVTVSS
VL: EIVLTQSPATLSLSPGERATLSCSASSSVSYMYWYQQKPGQAPRPLIYRTSNLASGIPARFSGSGSGTDFTLTISSLEPEDFAVYYCQQYHSYPKFGGGTKVEIK
notes: as for B1
For the molecule B5, in test [1], the Kd was determined as 0.107 nM. The affinity in test [2], expressed as Kd, was 0.107 nM. In addition, in test [3], the “EC50 in PBMC Assay 1 (endogenous IL-18BP), IFNγ” value amounted to 5.3 nM and the “EC50 in PBMC Assay 2 (precomplexed IL-18BP), IFNγ” value came to 7.4 nM.

B6: SA327a (antibody, human IgG1, V domains shown)
VH: QVQLQESGPGLVKPSQTLSLTCTVSGYSITSDYNAHWIRQPPGKGLEWIGYIHYSGSTNYNPSLKSRVTISRDTSKNQFSLKLSSVTAADTAVYYCARNYGSIYVNYFDYWGQGTLVTVSS
VL: EIVLTQSPATLSLSPGERATLSCSASSSVSYMYWYQQKPGQAPRPLIYRTSNLASGIPARFSGSGSGTDFTLTISSLEPEDFAVYYCQQYHGYPTFGGGTKVEIK
notes: as for B1
Molecule B6 had a Kd in test [1] of 0.249 nM. Further, binding in test [2] was characterised by a dissociation constant (Kd) of 0.249 nM. Further, in test [3], the “EC50 in PBMC Assay 1 (endogenous IL-18BP), IFNγ” value is 7.1 nM and the “EC50 in PBMC Assay 2 (precomplexed IL-18BP), IFNγ” value amounted to 4 nM.

B7: SA326a (antibody, human IgG1, V domains shown)
VH: QVQLQESGPGLVKPSQTLSLTCTVSGYSITSDYNAHWIRQPPGKGLEWIGYIHYSGSTNYNPSLKSRVTISRDTSKNQFSLKLSSVTAADTAVYYCARNYGSIYVNYFDYWGQGTLVTVSS
VL: EIVLTQSPATLSLSPGERATLSCSASSSVSYMYWYQQKPGQAPRPLIYRTSNLASGIPARFSGSGSGTDFTLTISSLEPEDFAVYYCQLYHSYPTFGGGTKVEIK
notes: as for B1
The molecule B7 returned a Kd in test [1] of 0.128 nM. This molecule gave a Kd in test [2] of 0.128 nM. In test [3], the “EC50 in PBMC Assay 1 (endogenous IL-18BP), IFNγ” value stood at 7.5 nM and the “EC50 in PBMC Assay 2 (precomplexed IL-18BP), IFNγ” value amounted to 1.2 nM.

B8: SA315a (antibody, human IgG1, V domains shown)
VH: QVQLQESGPGLVKPSQTLSLTCTVSGYSITSDYNAHWIRQPPGKGLEWIGYIHYSGQTMYNPSLKSRVTISRDTSKNQFSLKLSSVTAADTAVYYCARNFGSIYVNYFDYWGQGTLVTVSS
VL: EIVLTQSPATLSLSPGERATLSCSASSSVSYMYWYQQKPGQAPRPLIYRTSNLASGIPARFSGSGSGTDFTLTISSLEPEDFAVYYCQQYHSYPTFGGGTKVEIK
notes: as for B1
On to B8, for which, in test [1], the Kd stood at 0.039 nM. In addition, in test [2], the Kd came to 0.039 nM. For the same molecule, in test [3], the “EC50 in PBMC Assay 1 (endogenous IL-18BP), IFNγ” value came to 0.5 nM and the “EC50 in PBMC Assay 2 (precomplexed IL-18BP), IFNγ” value worked out at 0.49 nM.

B9: SA328a (antibody, human IgG1, V domains shown)
VH: QVQLQESGPGLVKPSQTLSLTCTVSGYSITSDYNAHWIRQPPGKGLEWIGYIHYSGSTNYNPSLKSRVTISRDTSKNQFSLKLSSVTAADTAVYYCARNYGSIYVNYFDYWGQGTLVTVSS
VL: EIVLTQSPATLSLSPGERATLSCSASSSVSYMYWYQQKPGQAPRPLIYRTSNLASGIPARFSGSGSGTDFTLTISSLEPEDFAVYYCQQYHSYVTFGGGTKVEIK
notes: as for B1
As for B9, the Kd in test [1] and in test [2] was 0.133 nM each time. The “EC50 in PBMC Assay 1 (endogenous IL-18BP), IFNγ” value in test [3] turned out to be 2 nM. Besides, the “EC50 in PBMC Assay 2 (precomplexed IL-18BP), IFNγ” value in test [3] was 5.8 nM.

B10: SA316a (antibody, human IgG1, V domains shown)
VH: QVQLQESGPGLVKPSQTLSLTCTVSGYSITSDYNAHWIRQPPGKGLEWIGYIHYSGSTYYNPSLKSRVTISRDTSKNQFSLKLSSVTAADTAVYYCARNYGSIYVNYFDYWGQGTLVTVSS
VL: EIVLTQSPATLSLSPGERATLSCSASSSVSYMYWYQQKPGQAPRPLIYRTSNLASGIPARFSGSGSGTDFTLTISSLEPEDFAVYYCQQYHSYPTFGGGTKVEIK
notes: as for B1
For the molecule B10, binding in test [1] was characterised by a dissociation constant (Kd) of 0.228 nM. Besides, the dissociation constant (Kd) in test [2] worked out at 0.228 nM. Further, in test [3], the “EC50 in PBMC Assay 1 (endogenous IL-18BP), IFNγ” value was found to be 0.6 nM and the “EC50 in PBMC Assay 2 (precomplexed IL-18BP), IFNγ” value was found to be 0.64 nM.

B11: SA317a (antibody, human IgG1, V domains shown)
VH: QVQLQESGPGLVKPSQTLSLTCTVSGYSITSDYNAHWIRQPPGKGLEWIGYIHYSGSTLYNPSLKSRVTISRDTSKNQFSLKLSSVTAADTAVYYCARNYGSIYVNYFDYWGQGTLVTVSS
VL: EIVLTQSPATLSLSPGERATLSCSASSSVSYMYWYQQKPGQAPRPLIYRTSNLASGIPARFSGSGSGTDFTLTISSLEPEDFAVYYCQQYHSYPTFGGGTKVEIK
notes: as for B1
The molecule B11 yielded a Kd in test [1] of 0.329 nM. Besides, in test [2], the affinity, expressed as Kd, was 0.329 nM. In test [3], the “EC50 in PBMC Assay 1 (endogenous IL-18BP), IFNγ” value is 0.4 nM and the “EC50 in PBMC Assay 2 (precomplexed IL-18BP), IFNγ” value is 0.45 nM.

B12: SA318a (antibody, human IgG1, V domains shown)
VH: QVQLQESGPGLVKPSQTLSLTCTVSGYSITQDYNAHWIRQPPGKGLEWIGYIHYSGQTMYNPSLKSRVTISRDTSKNQFSLKLSSVTAADTAVYYCARNFGSIYVNYFDYWGQGTLVTVSS
VL: EIVLTQSPATLSLSPGERATLSCSASSSVSYMYWYQQKPGQAPRPLIYRTSNLASGIPARFSGSGSGTDFTLTISSLEPEDFAVYYCQQYHSYPTFGGGTKVEIK
notes: as for B1
Regarding B12, the Kd in test [1] and in test [2] was 0.015 nM throughout. In test [3], the “EC50 in PBMC Assay 1 (endogenous IL-18BP), IFNγ” value amounted to 0.9 nM. Also, the “EC50 in PBMC Assay 2 (precomplexed IL-18BP), IFNγ” value in test [3] came out at 0.7 nM.

B13: SA321a (antibody, human IgG1, V domains shown)
VH: QVQLQESGPGLVKPSQTLSLTCTVSGYSITQDYNAHWIRQPPGKGLEWIGYIHYSGQTLYNPSLKSRVTISRDTSKNQFSLKLSSVTAADTAVYYCARNFGSIYVNYFDYWGQGTLVTVSS
VL: EIVLTQSPATLSLSPGERATLSCSASSSVSYMYWYQQKPGQAPRPLIYRTSNLASGIPARFSGSGSGTDFTLTISSLEPEDFAVYYCQQYHSYPTFGGGTKVEIK
notes: as for B1
B13 gave a Kd in test [1] of 0.136 nM. In test [2], this molecule yielded a Kd of 0.136 nM. For the same molecule, in test [3], the “EC50 in PBMC Assay 1 (endogenous IL-18BP), IFNγ” value amounted to 0.9 nM and the “EC50 in PBMC Assay 2 (precomplexed IL-18BP), IFNγ” value amounted to 0.85 nM.

B14: SA330a (antibody, human IgG1, V domains shown)
VH: QVQLQESGPGLVKPSQTLSLTCTVSGYSITSDYNAHWIRQPPGKGLEWIGYIHYSGQTYYNPSLKSRVTISRDTSKNQFSLKLSSVTAADTAVYYCARNFGSIYVNYFDYWGQGTLVTVSS
VL: EIVLTQSPATLSLSPGERATLSCSASSSVSYMYWYQQKPGQAPRPLIYRTSNLASGIPARFSGSGSGTDFTLTISSLEPEDFAVYYCQQYHSYPTFGGGTKVEIK
notes: as for B1
With B14, the equilibrium dissociation constant (Kd) in test [1] and in test [2] was 0.076 nM throughout. For the same molecule, the “EC50 in PBMC Assay 1 (endogenous IL-18BP), IFNγ” value in test [3] was found to be 21 nM. Moreover, the “EC50 in PBMC Assay 2 (precomplexed IL-18BP), IFNγ” value in test [3] is 0.9 nM.

For the origin of these results see US20250368745A1 (published 2025).
